Experimental findings from paper PMC4652282, “An Efficient Site-Specific Method for Irreversible Covalent Labeling of Proteins with a Fluorophore” are described below.

Holding throughout (conditions): protein: recombinant; tags: C-terminal SS-his6-GG-ald6 (LCTPSR); chain copies: 2; blunt, one internal G/T mismatch
Data set [1] addresses T1, EcMutS-his6/ald6, AF647-labeled (Escherichia coli, UniProt P23909 1-853).
T1 sequence: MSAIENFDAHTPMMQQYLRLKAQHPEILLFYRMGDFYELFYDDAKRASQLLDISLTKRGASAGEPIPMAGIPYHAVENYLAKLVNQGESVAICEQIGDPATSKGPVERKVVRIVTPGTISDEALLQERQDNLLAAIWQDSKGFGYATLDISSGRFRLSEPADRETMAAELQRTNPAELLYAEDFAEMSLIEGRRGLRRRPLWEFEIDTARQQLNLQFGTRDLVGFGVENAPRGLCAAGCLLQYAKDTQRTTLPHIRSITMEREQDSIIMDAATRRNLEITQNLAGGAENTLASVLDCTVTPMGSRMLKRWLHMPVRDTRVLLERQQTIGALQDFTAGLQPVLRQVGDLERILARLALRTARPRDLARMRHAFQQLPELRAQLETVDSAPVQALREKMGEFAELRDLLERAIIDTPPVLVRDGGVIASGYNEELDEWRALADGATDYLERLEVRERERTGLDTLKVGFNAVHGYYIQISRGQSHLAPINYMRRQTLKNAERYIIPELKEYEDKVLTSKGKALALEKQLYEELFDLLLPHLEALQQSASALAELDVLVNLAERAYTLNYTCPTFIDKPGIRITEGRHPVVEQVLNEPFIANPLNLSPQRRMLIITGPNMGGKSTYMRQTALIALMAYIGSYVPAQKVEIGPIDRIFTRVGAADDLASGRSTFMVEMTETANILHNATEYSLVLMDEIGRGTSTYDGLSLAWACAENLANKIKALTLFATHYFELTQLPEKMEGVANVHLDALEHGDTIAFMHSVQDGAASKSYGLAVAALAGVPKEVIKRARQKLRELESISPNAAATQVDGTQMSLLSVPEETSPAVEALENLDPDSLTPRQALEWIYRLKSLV
The experiment in a line: SPR; kon 3.44e5 M-1 s-1; koff 8.93e-4 s-1; koff with ATP 0.26 s-1; SPR at 25 C, buffer not shown; EMSA: 25 mM Hepes (GS Buffer, rest not shown), on ice 15 min. Background: In SPR one partner is held on a chip, and binding of the other changes the refractive index at the surface.

Data set [2] deals with T2, EcMutS-his6/ald6(D835R,R840E), AF555-labeled (Escherichia coli, UniProt P23909 1-853, D835R;R840E).
T2 sequence: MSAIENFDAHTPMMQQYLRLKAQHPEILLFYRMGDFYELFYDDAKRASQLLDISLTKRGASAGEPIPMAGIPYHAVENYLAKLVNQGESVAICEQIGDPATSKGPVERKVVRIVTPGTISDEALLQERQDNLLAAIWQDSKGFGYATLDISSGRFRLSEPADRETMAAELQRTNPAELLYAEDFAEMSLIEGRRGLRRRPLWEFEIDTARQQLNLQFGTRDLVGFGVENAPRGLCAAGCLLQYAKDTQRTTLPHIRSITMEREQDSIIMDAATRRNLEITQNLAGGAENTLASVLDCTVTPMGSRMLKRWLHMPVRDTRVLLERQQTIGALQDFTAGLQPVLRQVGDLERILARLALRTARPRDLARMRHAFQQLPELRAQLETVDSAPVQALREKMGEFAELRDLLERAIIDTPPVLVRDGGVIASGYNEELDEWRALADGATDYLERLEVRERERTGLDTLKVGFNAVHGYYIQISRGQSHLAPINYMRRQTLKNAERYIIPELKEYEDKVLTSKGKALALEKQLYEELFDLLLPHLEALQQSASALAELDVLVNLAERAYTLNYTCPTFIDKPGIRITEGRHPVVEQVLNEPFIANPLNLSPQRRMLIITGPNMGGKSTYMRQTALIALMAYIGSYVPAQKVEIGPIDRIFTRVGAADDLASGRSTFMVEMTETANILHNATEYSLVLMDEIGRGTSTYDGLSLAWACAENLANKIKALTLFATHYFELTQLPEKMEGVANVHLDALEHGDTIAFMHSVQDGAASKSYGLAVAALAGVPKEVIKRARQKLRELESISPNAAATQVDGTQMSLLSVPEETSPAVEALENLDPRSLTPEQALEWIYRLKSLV
Briefly: SPR; kon 4.37e5 M-1 s-1; koff 24.48e-4 s-1; koff with ATP 0.45 s-1; SPR at 25 C, buffer not shown; EMSA: 25 mM Hepes (GS Buffer, rest not shown), on ice 15 min.

For data set [3], the target named is T3, EcMutS-his6/ald6, unlabeled (Escherichia coli, UniProt P23909 1-853).
T3 sequence: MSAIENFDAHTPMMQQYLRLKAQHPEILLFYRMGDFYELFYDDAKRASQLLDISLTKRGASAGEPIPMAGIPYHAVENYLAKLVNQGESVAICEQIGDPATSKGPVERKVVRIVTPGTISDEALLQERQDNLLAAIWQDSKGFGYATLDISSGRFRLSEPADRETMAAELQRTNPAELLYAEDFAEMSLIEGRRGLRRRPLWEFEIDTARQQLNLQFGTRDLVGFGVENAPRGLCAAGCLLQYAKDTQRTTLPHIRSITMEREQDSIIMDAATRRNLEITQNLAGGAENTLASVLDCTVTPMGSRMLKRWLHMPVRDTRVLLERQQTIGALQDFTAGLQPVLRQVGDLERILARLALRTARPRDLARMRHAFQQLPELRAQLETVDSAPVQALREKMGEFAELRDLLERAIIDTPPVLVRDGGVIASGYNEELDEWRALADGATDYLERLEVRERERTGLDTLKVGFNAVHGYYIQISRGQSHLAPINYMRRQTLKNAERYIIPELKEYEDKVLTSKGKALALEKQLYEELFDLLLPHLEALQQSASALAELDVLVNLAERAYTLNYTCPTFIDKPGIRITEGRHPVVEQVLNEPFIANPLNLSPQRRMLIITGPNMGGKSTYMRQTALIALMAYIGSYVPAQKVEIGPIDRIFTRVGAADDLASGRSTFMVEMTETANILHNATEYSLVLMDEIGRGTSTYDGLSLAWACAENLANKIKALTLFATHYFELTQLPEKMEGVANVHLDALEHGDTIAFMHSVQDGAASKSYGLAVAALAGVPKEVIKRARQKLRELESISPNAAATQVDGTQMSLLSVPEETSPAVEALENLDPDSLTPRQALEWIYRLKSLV
Briefly: SPR; kon 5.29e5 M-1 s-1; koff 6.10e-4 s-1; koff with ATP 0.53 s-1; SPR at 25 C, buffer not shown; EMSA: 25 mM Hepes (GS Buffer, rest not shown), on ice 15 min.

In data set [4] the target is T4, EcMutS-his6/ald6(D835R,R840E), unlabeled (Escherichia coli, UniProt P23909 1-853, D835R;R840E).
T4 sequence: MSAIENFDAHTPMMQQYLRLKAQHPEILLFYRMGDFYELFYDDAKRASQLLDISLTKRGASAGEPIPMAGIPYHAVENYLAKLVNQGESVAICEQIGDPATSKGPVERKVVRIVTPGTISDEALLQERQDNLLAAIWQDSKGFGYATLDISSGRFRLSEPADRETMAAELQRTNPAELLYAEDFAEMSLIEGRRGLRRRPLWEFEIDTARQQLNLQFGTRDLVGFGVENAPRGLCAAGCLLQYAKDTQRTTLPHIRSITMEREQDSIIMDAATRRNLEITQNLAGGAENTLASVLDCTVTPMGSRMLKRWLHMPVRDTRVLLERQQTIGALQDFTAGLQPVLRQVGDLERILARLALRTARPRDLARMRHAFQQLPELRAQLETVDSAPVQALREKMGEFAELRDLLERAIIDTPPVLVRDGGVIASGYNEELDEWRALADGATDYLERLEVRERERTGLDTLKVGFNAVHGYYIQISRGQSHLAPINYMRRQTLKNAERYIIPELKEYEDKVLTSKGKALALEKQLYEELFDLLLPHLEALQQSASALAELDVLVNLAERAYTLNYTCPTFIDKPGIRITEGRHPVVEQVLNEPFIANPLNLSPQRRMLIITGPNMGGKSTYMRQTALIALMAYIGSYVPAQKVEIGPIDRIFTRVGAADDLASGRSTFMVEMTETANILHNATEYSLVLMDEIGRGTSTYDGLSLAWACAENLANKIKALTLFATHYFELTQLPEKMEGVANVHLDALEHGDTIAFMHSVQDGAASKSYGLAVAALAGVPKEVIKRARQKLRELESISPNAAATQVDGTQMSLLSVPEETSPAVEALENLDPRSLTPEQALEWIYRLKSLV
The experiment in a line: SPR; kon 9.48e5 M-1 s-1; koff 33.02e-4 s-1; koff with ATP 0.48 s-1; SPR at 25 C, buffer not shown; EMSA: 25 mM Hepes (GS Buffer, rest not shown), on ice 15 min.

By Kd is commonly meant the constant that tells how readily two partners part at equilibrium.

B1: G/T mismatch DNA (SPR) (dsDNA)
DNA 1: AACTATAGGGCGAATTGGGTACCGCTGAATTGCACCGAGCTTGATCCTCGATGATCCTAAGCTAAGCTTCAGCTCCAGCTTT
DNA 2: AAAGCTGGAGCTGAAGCTTAGCTTAGGATCATCGAGGATCGAGCTCGGTGCAATTCAGCGGTACCCAATTCGCCCTATAGTT
Consider B1, for which the Kd came out at 2.63 ± 0.49 nM in data set [1], 5.75 ± 1.51 nM in data set [2], 1.25 ± 0.53 nM in data set [3] and 3.85 ± 1.78 nM in data set [4].
